Reference: the supplement of paper PMC9112550, “Optimization of the antimicrobial peptide Bac7 by deep mutational scanning” (BMC Biology, 2022)

test system: Escherichia coli TOP10; assay: shrunken log2 fold change of peptide-encoding DNA abundance (4.5 h post-induction vs induction); higher = less antimicrobial activity (less host growth inhibition); conditions: time post-induction: 4.5 h; library: site-saturation at positions 5, 18, 19, 20
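Further: peptides expressed intracellularly from a pBAD plasmid library in pooled LB shake-flask culture, induced with 0.3% L-arabinose, DNA abundance read by NGS, three biological replicates, DESeq2 with apeglm shrinkage.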

Sequence | shrunken log2 fold change
RRIRKRPPRLPRPRPRPICTPRP | -0.0207
RRIRWRPPRLPRPRPRPYDHPRP | -0.207
RRIRMRPPRLPRPRPRPVRQPRP | 0.332
RRIRPRPPRLPRPRPRPWINPRP | -0.719
RRIRGRPPRLPRPRPRPILNPRP | -0.0611
RRIRDRPPRLPRPRPRPFCIPRP | -0.0778
RRIRQRPPRLPRPRPRPQNKPRP | -0.22
RRIRNRPPRLPRPRPRPMLFPRP | -0.301
RRIRHRPPRLPRPRPRPNGAPRP | -0.18
RRIRHRPPRLPRPRPRPAPDPRP | -0.0192
RRIRGRPPRLPRPRPRPFTNPRP | 0.0545
RRIRARPPRLPRPRPRPWWDPRP | -0.101
RRIRSRPPRLPRPRPRPEHEPRP | -0.182
RRIRARPPRLPRPRPRPHVEPRP | 0.147
RRIRCRPPRLPRPRPRPLQYPRP | -0.0878
RRIRQRPPRLPRPRPRPKFKPRP | 0.0538
RRIRPRPPRLPRPRPRPRDYPRP | 0.144
RRIRCRPPRLPRPRPRPVGCPRP | 0.204
RRIRWRPPRLPRPRPRPWQGPRP | -0.11
RRIRFRPPRLPRPRPRPLSHPRP | -0.512
RRIRIRPPRLPRPRPRPSMRPRP | -0.000106
RRIRQRPPRLPRPRPRPVYCPRP | -0.155
RRIRNRPPRLPRPRPRPVMTPRP | 0.0556
RRIRARPPRLPRPRPRPEMFPRP | 0.522
RRIRRRPPRLPRPRPRPAFTPRP | 0.118

Sequence | shrunken log2 fold change
RRIRHRPPRLPRPRPRPAFNPRP | -0.313
RRIRVRPPRLPRPRPRPLTDPRP | 0.0682
RRIRNRPPRLPRPRPRPKINPRP | -0.387
RRIRVRPPRLPRPRPRPNDSPRP | -0.326
RRIRPRPPRLPRPRPRPYLAPRP | -0.528
RRIRWRPPRLPRPRPRPDYAPRP | -0.0174
RRIRLRPPRLPRPRPRPTNLPRP | -0.27
RRIRTRPPRLPRPRPRPQVVPRP | -0.0349
RRIRMRPPRLPRPRPRPLINPRP | -0.231
RRIRRRPPRLPRPRPRPWQRPRP | 0.188
RRIRDRPPRLPRPRPRPMILPRP | -0.111
RRIRSRPPRLPRPRPRPYTPPRP | -1.07
RRIRARPPRLPRPRPRPPKFPRP | 0.121
RRIRARPPRLPRPRPRPGWKPRP | 0.167
RRIRARPPRLPRPRPRPFMQPRP | -0.0876
RRIRKRPPRLPRPRPRPSCMPRP | -0.0405
RRIRQRPPRLPRPRPRPALTPRP | 0.128
RRIRVRPPRLPRPRPRPWKGPRP | 0.103
RRIRRRPPRLPRPRPRPLDGPRP | 0.0894
RRIRHRPPRLPRPRPRPIRPPRP | -0.125
RRIRRRPPRLPRPRPRPWVFPRP | -0.106
RRIRVRPPRLPRPRPRPAHNPRP | -0.296
RRIRSRPPRLPRPRPRPRHHPRP | -0.163
RRIRNRPPRLPRPRPRPCFFPRP | -0.489
RRIRARPPRLPRPRPRPNDAPRP | -0.0891

Sequence | shrunken log2 fold change
RRIRRRPPRLPRPRPRPRMFPRP | 0.556
RRIRSRPPRLPRPRPRPFVCPRP | -0.326
RRIRHRPPRLPRPRPRPLTNPRP | 0.185
RRIRLRPPRLPRPRPRPEKYPRP | -0.397
RRIRSRPPRLPRPRPRPSGTPRP | -0.494
RRIRIRPPRLPRPRPRPQTAPRP | 0.101
RRIRNRPPRLPRPRPRPKIHPRP | -0.719
RRIRKRPPRLPRPRPRPPIAPRP | 0.464
RRIRPRPPRLPRPRPRPTTVPRP | 0.0207
RRIRYRPPRLPRPRPRPRQVPRP | -0.206
RRIRNRPPRLPRPRPRPQVMPRP | 0.06
RRIRCRPPRLPRPRPRPHDSPRP | -0.298
RRIRVRPPRLPRPRPRPMFSPRP | -0.284
RRIRFRPPRLPRPRPRPLPMPRP | 0.142
RRIRERPPRLPRPRPRPGFTPRP | 0.00165
RRIRSRPPRLPRPRPRPLPFPRP | -0.588
RRIRPRPPRLPRPRPRPCCWPRP | 0.81
RRIRWRPPRLPRPRPRPNNCPRP | 0.00476
RRIRERPPRLPRPRPRPEECPRP | -0.000921
RRIRDRPPRLPRPRPRPVMDPRP | 0.114
RRIRIRPPRLPRPRPRPMECPRP | -0.153
RRIRYRPPRLPRPRPRPWHNPRP | -0.626
RRIRGRPPRLPRPRPRPAFFPRP | 0.787
RRIRSRPPRLPRPRPRPDEIPRP | 0.139
RRIRMRPPRLPRPRPRPSESPRP | -0.01

Sequence | shrunken log2 fold change
RRIRFRPPRLPRPRPRPAPFPRP | -0.236
RRIRLRPPRLPRPRPRPCWKPRP | 0.00126
RRIRNRPPRLPRPRPRPHDVPRP | -0.0113
RRIRNRPPRLPRPRPRPSDEPRP | -0.189
RRIRRRPPRLPRPRPRPPYGPRP | 0.0935
RRIRNRPPRLPRPRPRPMDPPRP | -0.0437
RRIRPRPPRLPRPRPRPHNQPRP | -0.378
RRIRKRPPRLPRPRPRPLHLPRP | -0.198
RRIRGRPPRLPRPRPRPDAGPRP | 0.601
RRIRPRPPRLPRPRPRPFQMPRP | -0.0867
RRIRDRPPRLPRPRPRPDTDPRP | 0.0647
RRIRFRPPRLPRPRPRPSNAPRP | -0.165
RRIRFRPPRLPRPRPRPHLWPRP | 0.185
RRIRVRPPRLPRPRPRPHLLPRP | -0.272
RRIRFRPPRLPRPRPRPESSPRP | 0.113
RRIRKRPPRLPRPRPRPKDNPRP | 0.297
RRIRFRPPRLPRPRPRPIYVPRP | -0.871
RRIRQRPPRLPRPRPRPWRTPRP | -0.152
RRIRKRPPRLPRPRPRPCMCPRP | -0.0956
RRIRSRPPRLPRPRPRPAALPRP | -0.0411
RRIRIRPPRLPRPRPRPDVSPRP | -0.121
RRIRCRPPRLPRPRPRPTSCPRP | -0.0641
RRIRGRPPRLPRPRPRPNCKPRP | 0.21
RRIRERPPRLPRPRPRPKKQPRP | -0.0932
RRIRSRPPRLPRPRPRPNHIPRP | -0.651

Sequence | shrunken log2 fold change
RRIRVRPPRLPRPRPRPLHKPRP | -0.192
RRIRSRPPRLPRPRPRPDISPRP | -0.0675
RRIRQRPPRLPRPRPRPREQPRP | -0.00783
RRIRLRPPRLPRPRPRPNTFPRP | -0.348
RRIRLRPPRLPRPRPRPKWWPRP | 0.396
RRIRKRPPRLPRPRPRPHRFPRP | -0.0599
RRIRKRPPRLPRPRPRPLIQPRP | 0.112
RRIRQRPPRLPRPRPRPHGIPRP | 0.179
RRIRMRPPRLPRPRPRPPYEPRP | 0.0457
RRIRDRPPRLPRPRPRPEQDPRP | 1.39
RRIRRRPPRLPRPRPRPLRVPRP | 0.966
RRIRVRPPRLPRPRPRPGWHPRP | 0.132
RRIRERPPRLPRPRPRPYIFPRP | -0.15
RRIRDRPPRLPRPRPRPFSGPRP | -0.214
RRIRPRPPRLPRPRPRPFLEPRP | -0.214
RRIRERPPRLPRPRPRPYYEPRP | -0.224
RRIRLRPPRLPRPRPRPIREPRP | -0.27
RRIRGRPPRLPRPRPRPEEVPRP | 1.53
RRIRIRPPRLPRPRPRPYKWPRP | -0.424
RRIRGRPPRLPRPRPRPKPAPRP | 1.42
RRIRPRPPRLPRPRPRPVNTPRP | -0.634
RRIRDRPPRLPRPRPRPRYWPRP | 0.152
RRIRMRPPRLPRPRPRPGQNPRP | 0.0316
RRIRTRPPRLPRPRPRPGFQPRP | -0.0547
RRIRERPPRLPRPRPRPWDEPRP | 0.0271
